Experimental data reported in article PMC3344845, “Structure of Bradavidin – C-Terminal Residues Act as Intrinsic Ligands” (PLoS ONE, 2012).

Experiments:
[1] = target: core-bradavidin (Bradyrhizobium japonicum); experiment: ITC; core-bradavidin in the cell, ligand (Brad-tag or Brad-tag–EGFP) in the syringe, 15°C, 50 mM sodium phosphate pH 7.0, 100 mM NaCl; n is the stoichiometry per subunit
[2] = target: core-bradavidin (Bradyrhizobium japonicum); experiment: ITC; core-bradavidin in the cell, Brad-tag–EGFP in the syringe, 25°C, 50 mM sodium phosphate pH 7.0, 100 mM NaCl; n is the stoichiometry per subunit
[3] = target: Brad-tag–EGFP–His-tag fusion protein (Bradyrhizobium japonicum); experiment: BLI; Octet RED384; Brad-tag–EGFP–His-tag (0.03 mg/ml, 700 s) held on anti-Penta-HIS biosensors; higher concentrations: core-bradavidin 0.5, wt bradavidin 1.2, avidin 1.8, streptavidin 1.7, rhizavidin 2.0 mg/ml for 200 s; controls with biotin (3.2 mM for core-bradavidin, 13 mM for avidin) and plain sensors; 30°C

| Kd [1] [nM] | dH [1] [kcal mol^–1] | stoichiometry N [1] | Kd [2] [nM] | dH [2] [kcal mol^–1] | stoichiometry N [2] | shift (BLI response) [3] [nm] | Substance |
| --- | --- | --- | --- | --- | --- | --- | --- |
| 2800 | -0.5 | 0.68 | 3100 | -1 | 0.68 | – | Brad-tag–EGFP fusion protein (without His-tag) |
| – | – | – | – | – | – | 1.2 | core-bradavidin (domain or fragment) |
